Biological target: APOBEC3G (A3G) (UniProt Q9HC16)
Assay: AFM imaging
Settings: protein:DNA 2:1, Force spectroscopy probing buffer: 50 mM HEPES, 100 mM NaCl, 5 mM MgCl2, 1 mM DTT (pH and temperature not given), imaging buffer not in the material

APOBEC3G (A3G), sequence (Q9HC16 whole entry): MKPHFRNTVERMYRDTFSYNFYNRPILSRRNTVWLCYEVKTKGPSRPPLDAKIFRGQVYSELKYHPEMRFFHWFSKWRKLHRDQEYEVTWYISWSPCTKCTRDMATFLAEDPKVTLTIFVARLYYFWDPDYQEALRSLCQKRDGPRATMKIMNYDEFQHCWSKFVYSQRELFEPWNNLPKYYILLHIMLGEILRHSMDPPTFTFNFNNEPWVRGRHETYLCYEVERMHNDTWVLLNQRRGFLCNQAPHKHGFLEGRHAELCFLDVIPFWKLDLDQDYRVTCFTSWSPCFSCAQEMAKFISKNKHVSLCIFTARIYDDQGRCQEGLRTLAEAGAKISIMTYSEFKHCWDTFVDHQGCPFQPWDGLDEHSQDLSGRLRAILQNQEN

Substance	binding signal (% complex yield) (p = 0.12 vs specific (not significant))	binding signal (% complex yield)
418 bp duplex with 69 nt nonspecific overhang	72.8	
418 bp duplex with 69 nt deaminase specific overhang		79.7

Source: PMC4621513
